Drawing on the supplement of paper PMC10567573, this text covers protein stability index for 72 sequences.

The data set can be described thus: protein stability index of a GFP-peptide fusion (GPS, HEK-293T) (PSI 1-6); higher = more stable.
Where [1] appears, read: treatment: DMSO, c terminus: a fixed tail appended.
Where [2] appears, read: treatment: MLN4924 1 uM, 8 h, c terminus: a fixed tail appended.
The mark [3] stands for this setting: treatment: DMSO, c terminus: native.
The mark [4] stands for this setting: treatment: MLN4924 1 uM, 8 h, c terminus: native.

± gives the standard deviation.
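Note: 24-mer peptide tiles fused after GFP, lentivirally expressed, FACS-sorted into six equal bins by GFP/DsRed ratio, decoded by Illumina sequencing, PSI is the read-weighted mean bin number.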

For the sequence ICKEVQAEQEPTRKLFEVESVTHH [SPAG8], the protein stability index came out at 4.47 ± 0.12 under setting [1] and 4.77 ± 0.07 under setting [2]. The sequence LHPRPDWEHSAPQRLPRSAPPGSL [PCDHGC5] showed a protein stability index under setting [1] of 4.78 ± 0.19 and a protein stability index under setting [2] of 4.75 ± 0.17. On to SNSQPTNESHSIKAILKNISVLAF [SLC29A1], for which the protein stability index by setting is: under setting [1], 2.45 ± 0.46; under setting [2], 2.43 ± 0.29. Consider WAPASEGLKPGPEDGPGKEEAPEL [SERTAD1], for which the protein stability index was found to be 5.5 ± 0.2 under setting [1] and 5.46 ± 0.41 under setting [2]. On to DKGEKLLRCKLAAFYRLADLFGWS [ADD1], for which the protein stability index by setting is: under setting [1], 2.59 ± 0.64; under setting [2], 2.28 ± 0.24.

For VIFQREQESKNQVHRRGEYNVYST [PPP2R2B], the protein stability index by setting is: under setting [1], 3.06 ± 0.14; under setting [2], 3.04 ± 0.23. DKYCPLLIKEGGMPLLRDIIKMAT [ZER1]: the protein stability index runs as follows: under setting [1], 2.46 ± 0.3; under setting [2], 2.22 ± 0.31. TSAAYRYYIDDVFHALVREIRRKE [RIT1]: the protein stability index runs as follows: under setting [1], 2.16 ± 0.36; under setting [2], 2.35 ± 0.26.

Turning to RSQQQEPLLCPSYQSYFKTIEELQ [KRT33B], the protein stability index by setting is: under setting [1], 3.21 ± 0.37; under setting [2], 3.43 ± 0.18.

With HVQKLSQECLKQLAIKKQQHIDNI [TRIM14], the protein stability index is, setting by setting: under setting [1], 3.81 ± 0.36; under setting [2], 3.75 ± 0.12. The sequence GCCVFAFLVGLLFVQRSGNYFVTM [SLC6A17] showed a protein stability index under setting [1] of 3.39 ± 0.34 and a protein stability index under setting [2] of 3.12 ± 0.07. Take GGQDGLGAPKDQQQPPQQQPSQQQ [KLHL14]: the protein stability index is 5.36 ± 0.5 under setting [1] and 5.4 ± 0.56 under setting [2]. RDNGHSNRDEHSSRGYRNHRSSRE [RBMY1A1] came in with a protein stability index under setting [1] of 5.1 ± 0.074 and a protein stability index under setting [2] of 5.24 ± 0.088. On to GLMTQSSLETHHYVDCGGNSTAI [TMEM106C], for which the protein stability index reads like this: under setting [3], 3.18 ± 0.074; under setting [4], 3.6 ± 0.13. Turning to HVTVVILFFVPCIFLYARPNSTFP [OR4A15], the protein stability index by setting is: under setting [1], 2.83 ± 0.9; under setting [2], 2.77 ± 0.51. For the sequence RLPRQNSDGGQKNKPREHIIDCGD [WSB1], the protein stability index is, setting by setting: under setting [1], 4.54 ± 0.39; under setting [2], 5.07 ± 0.095. For CEYNFVSPSKSFWTRITCAEEGWS [CFHR2], the protein stability index runs as follows: under setting [1], 2.31 ± 0.35; under setting [2], 2.05 ± 0.089.

For the sequence RPIIASISSGVVSIWAQNQVENWS [RBBP5], the protein stability index was found to be 2.22 ± 0.34 under setting [1] and 2.26 ± 0.42 under setting [2].

Regarding IDGKGRGVIATKQFSRGDFVVEYH [KMT5A], the protein stability index by setting is: under setting [1], 2.91 ± 0.26; under setting [2], 3.03 ± 0.35.

For QVALLRLTWSELFVLNAAQCSMPL [NR2F2], the protein stability index worked out at 2.97 ± 0.44 under setting [1] and 3 ± 0.41 under setting [2]. Turning to RELLDRAMREAIQSYPSQDKPLPP [SOAT2], the protein stability index runs as follows: under setting [1], 3.94 ± 0.12; under setting [2], 3.95 ± 0.083. IVRRRSRDVPESPQHAADTPKSGE [YJU2B] showed a protein stability index under setting [1] of 5.06 ± 0.25 and a protein stability index under setting [2] of 5.21 ± 0.22. In the case of NVEDEAETKKVLGLQDTITAELVV [PALM], the protein stability index is, setting by setting: under setting [1], 4.3 ± 0.28; under setting [2], 4.25 ± 0.18. In the case of ALGWAPAAPPPLKDDPEGDRDGCV [ZBED3], the protein stability index by setting is: under setting [1], 5.34 ± 0.17; under setting [2], 5.54 ± 0.3. RTIVEEVQDGKVISSREQVHQTTR [KRT17]: the protein stability index is, setting by setting: under setting [1], 4.69 ± 0.25; under setting [2], 5.01 ± 0.38. On the same counts, the results for ANYIDGYRKQNAYIATQGSLPETF [PTPRD] are 2.94 ± 0.25 and 3.13 ± 0.45. On the same counts, the results for LKDEEAKVLQLTVRCEALTGELET [CCDC89] are 3.86 ± 0.15 and 3.71 ± 0.25. QNDNAPEILYPALPTDGSTGVELA [PCDHGA10]: the protein stability index reads like this: under setting [1], 4.84 ± 0.39; under setting [2], 5.2 ± 0.18. Turning to DTTEEVDHKPKLCRLAKGENGYGF [PDZK1], the protein stability index is, setting by setting: under setting [1], 3.64 ± 0.32; under setting [2], 3.79 ± 0.38. Taken in the same sequence, the figures for DIDKKHLVLLRDGRTLIGFLRSID [LSM1] were 2.3 ± 0.31 and 2.25 ± 0.18. Taken in the same sequence, the figures for YKPNPQIYVKLIEECTDLQKEGEF [OAS1] were 3.54 ± 0.28 and 3.53 ± 0.19. As for GNIIAHASTTRLYLRKGRGETRIC [RAD51], the protein stability index by setting is: under setting [1], 3.11 ± 0.44; under setting [2], 3.16 ± 0.34.

For the sequence AQAGTPAPTKPHDYRQEQPETFWI [SPAG8], the protein stability index is 3.54 ± 0.29 under setting [1] and 3.59 ± 0.29 under setting [2]. Sequence LWRYRTITFSGRPSRVHASEVESA [FBXO39] displayed a protein stability index under setting [1] of 2.79 ± 0.27 and a protein stability index under setting [2] of 3 ± 0.33. Taken in the same sequence, the figures for EVNSRCYQPEPFACGIEHCSVHYV [FBXO34] were 2.58 ± 0.18 and 2.33 ± 0.67. On the same counts, the results for SGAAASLNVDAAVQQWLQKGTPAS [CHIT1] are 4.12 ± 0.33 and 4.01 ± 0.35. Taken in the same sequence, the figures for QYIISDLASARIIEQDAVVPSEWL [GMCL1] were 2.76 ± 0.24 and 2.76 ± 0.25.

Consider DFSRCDMDGATLCNCALEELRLVF [ELF3], for which the protein stability index came to 2.37 ± 0.15 under setting [1] and 2.11 ± 0.32 under setting [2]. Take DAIRGKVGYTRGLHVWQITWAMRQ [SPSB1]: the protein stability index turned out to be 2.38 ± 0.54 under setting [1] and 2.36 ± 0.42 under setting [2]. On the same counts, the results for QAIDHGCEHICVNSDDSYTCECLE [MATN2] are 5.43 ± 0.098 and 5.14 ± 0.28. Take QLIDNILEESDIDRDGTINLSEFQ [CIB1]: the protein stability index runs as follows: under setting [1], 3.69 ± 0.35; under setting [2], 3.89 ± 0.26. Consider MTSTGQDSTTTRQRRSRQNPQSPP [HDAC6], for which the protein stability index is 5.46 ± 0.14 under setting [1] and 5.4 ± 0.12 under setting [2]. Regarding ITNQEELWKMKPRRNLEEDDYLHK [STEAP1], the protein stability index is, setting by setting: under setting [1], 4.22 ± 0.41; under setting [2], 4.02 ± 0.26. For the sequence FVEATRKWKVGIPSDPLVSIGALI [ALDH8A1], the protein stability index is, setting by setting: under setting [1], 2.34 ± 1.1; under setting [2], 2.16 ± 0.57.

In the case of FSEETEKKFEHFSGLLNNQLSPQ [LOXL2], the protein stability index by setting is: under setting [3], 3.57 ± 0.72; under setting [4], 4.61 ± 0.37.

Turning to EKLQKEQKELQDVGQSLRIKEQEV [SASS6], the protein stability index reads like this: under setting [1], 4.79 ± 0.94; under setting [2], 5.29 ± 0.04.

As for QSLNDRLASYLDRVRSLETENRRL [KRT18], the protein stability index runs as follows: under setting [1], 3.65 ± 0.044; under setting [2], 3.67 ± 0.23.

As for AFADRDQSERQRHESQQLATETQA [TEKT4], the protein stability index under setting [1] worked out at 5.11 ± 0.16 and the protein stability index under setting [2] amounted to 5.36 ± 0.31. On the same counts, the results for NINDRIKELGTLIPKSSDPEMRWN [TFE3] are 3.58 ± 0.33 and 3.77 ± 0.17. Take WMEILILGVVYRSLSFEDELVYAD [ESRRG]: the protein stability index is, setting by setting: under setting [1], 3.77 ± 0.27; under setting [2], 2.68 ± 0.25. RGTHAVVGVATADAPLHSVGYTTL [SPSB1]: the protein stability index by setting is: under setting [1], 2.73 ± 0.26; under setting [2], 2.88 ± 0.14. On to ILGRGLQEYQLPYQRVLPLPIFTP [TCAP], for which the protein stability index runs as follows: under setting [1], 2.25 ± 0.21; under setting [2], 2.37 ± 0.12. In the case of LTFHRHPVAQSTDGIRGKVGHARG [SPSB4], the protein stability index by setting is: under setting [1], 3.99 ± 0.32; under setting [2], 3.97 ± 0.26. With EFLPQGPVAMRVAKLAINQGMEVD [AUH], the protein stability index under setting [2] came to 3.82 ± 0.18. On to CMVGLLLIALLTWGYIRYSGQYRE [ATL3], for which the protein stability index runs as follows: under setting [1], 2.95 ± 0.25; under setting [2], 3.04 ± 0.36. Turning to AHFSPFLYYQSQELPNGSVKEAPA [PDZK1], the protein stability index is, setting by setting: under setting [1], 3.45 ± 0.13; under setting [2], 3.33 ± 0.13. With ILHIMVKVVKGHRPELPPVCRARP [RIPK4], the protein stability index amounted to 3.35 ± 0.92 under setting [1] and 2.4 ± 0.36 under setting [2].

On to GSCSTEVEKETQEKMTILQTYFRQ [ATP6V1G1], for which the protein stability index by setting is: under setting [1], 2.5 ± 0.25; under setting [2], 2.62 ± 0.3. Turning to SSPQGKSGPEAARAGGWVSGEEFY [PKD2L1], the protein stability index reads like this: under setting [1], 4.51 ± 0.2; under setting [2], 4.54 ± 0.17.

Regarding DSVDAQNICHVWHMNVEALPEWIS [RNF180], the protein stability index reads like this: under setting [1], 2.44 ± 0.34; under setting [2], 2.62 ± 0.38. SREMLQQSKILKVIRKNIVKKCLE [HSP90AB1]: the protein stability index runs as follows: under setting [1], 2.56 ± 0.31; under setting [2], 2.42 ± 0.57. On the same counts, the results for LKNIELFDKLALRFHGRLLFLKDV [KCTD13] are 2.66 ± 0.77 and 2.11 ± 0.15. As to LDPVAETAIRQLTEPSGRVAKKTP [C2CD2L], the protein stability index by setting is: under setting [1], 5.66 ± 0.17; under setting [2], 5.18 ± 0.47. Regarding YLAFAASNVRGSLNVNLNSVVLRR [DUSP5], the protein stability index runs as follows: under setting [1], 2.41 ± 0.24; under setting [2], 2.69 ± 0.24. Regarding VAIFIMSLNKRHSSGDGNSKLKSE [MFSD9], the protein stability index runs as follows: under setting [1], 2.77 ± 1.2; under setting [2], 2.16 ± 0.12. In the case of AILRVIRLVRVFRIFKLSRHSKGL [KCNA1], the protein stability index was 2.28 ± 0.36 under setting [1] and 2.46 ± 0.24 under setting [2]. On the same counts, the results for LYAKMIQKLADLRSLNEEHSKQYR [VDR] are 2.15 ± 0.41 and 2.19 ± 0.22. With KKKKKQKNKKSSTGEASENGLEDI [TCF25], the protein stability index by setting is: under setting [1], 5.04 ± 0.097; under setting [2], 4.49 ± 0.25. For the sequence HSVLQGFIPLFQKFRLTGFRKTD [TMEM40], the protein stability index was 2.69 ± 0.62 under setting [3] and 2.69 ± 0.43 under setting [4]. As for VLEGPAPWGFRLQGGKDFNVPLSI [PDLIM7], the protein stability index reads like this: under setting [1], 2.31 ± 0.12; under setting [2], 2.44 ± 0.17. With EEAEAGEEAVPEEEGPTVVLNPHP [CHGA], the protein stability index under setting [1] worked out at 5.59 ± 0.14 and the protein stability index under setting [2] was 5.44 ± 0.28. On to SLVGNLGISGTTTKKGDLQWNAGE [SNAP91], for which the protein stability index was 3.54 ± 0.39 under setting [1] and 3.62 ± 0.23 under setting [2].
